Changes are numbered by the printed parent chain.
B1: anti-CLDN-5 ECR mAb clone 1B3 (antibody, V domains shown)
VH: QIQLVQSGPELKKPGETVKISCKASGYSFTAHGMSWVKQAPGKGLKWMGWINTYSGVPAYADDFKGRFAFSLETSPSTAFLQINNLKNEDTATYFCTRSHYDRKFGYWGQGTLVTVSA
VL: QAVVTQESALTTSPGETVTLTCRSSTGAVTTSNYANWVQEKPDHLFTGLIGDTNNRAPGVPARFSGSLIGDKAALTITGAQTGDEAIYFCALWYSNLWVFGGGTKLTVR
notes: source: hybridoma from an Antigen1-immunized BXSB mouse; ascitic fluid, purified (Protein G Sepharose); also reconstituted as recombinant antibody
B2: anti-CLDN-5 ECR mAb clone 1D1 (antibody, V domains shown)
VH: QVQLQQPGAEHVKPGASVKLSCKASGYTFTTYWIHWVKQRPGRGLEWIGRIAPNSGGTKYNENFKSKATLTVDRPSTTAYMQLSGLTSEDSAVYYCARWDFTFGTNLDYWGQGTTLTVSS
VL: DIVMTQSQKFMSTSVGDRVSITCKASQNVRTAVAWYQQKPGQSPKALIFLASNRHTGVPDRFTGSGSGTDFTLTITNVQSEDLADYFCLQHWTYPYTFGGGTKLEIK
notes: source: hybridoma from an Antigen2-immunized BXSB mouse; ascitic fluid, purified (Protein G Sepharose); also reconstituted as recombinant antibody
B3: anti-CLDN-5 ECR mAb clone 2B1 (antibody, V domains shown)
VH: B2 VH with H11L, Y32F, N54Y, K59T, N63K, S84I, G85S, F103Y, T105S
VL: B2 VL with T22P, F49Y, T76S, Q90G, T93D
notes: as for B2
B4: anti-CLDN-5 ECR mAb clone 2B12 (antibody, V domains shown)
VH: QVQLQQSGAELARPGASVKLSCKASGYTFTRFGMSWVKQRTGQGLEWIGEIYPGSGDTYYSENFKGKATLTADKSSGTAYMELRSLTSEDSAVYFCARWGIYYGNPYAMDYWGQGTSVTVSS
VL: DIVMTQAAPSVPVTPGESVSISCRSSKSLLHSNGNTYLYWFLQRPGQSPQLLIYRMSNLASGVPDRFSGSGSGTAFTLRISRVEAEDVGVYYCLQHLEYPFTFGSGTKLEIK
notes: as for B2

Legend:
[1] = molecular target: T1, human claudin-3 expressed in HT-1080 cells (Homo sapiens (Human)., UniProt O15551); experiment: flow cytometry on cells; HT-1080 cells stably expressing CLDNs or CLDN-5 mutants, detached with 0.05% trypsin/0.02% EDTA; 5 µg/mL mAb; fluorescence-conjugated goat anti-mouse IgG; settings: one partner purified
T1 construct: claudin-3, human; also called human CLDN-3; source: HT-1080 cells, stably expressing
T1 sequence (O15551 whole entry): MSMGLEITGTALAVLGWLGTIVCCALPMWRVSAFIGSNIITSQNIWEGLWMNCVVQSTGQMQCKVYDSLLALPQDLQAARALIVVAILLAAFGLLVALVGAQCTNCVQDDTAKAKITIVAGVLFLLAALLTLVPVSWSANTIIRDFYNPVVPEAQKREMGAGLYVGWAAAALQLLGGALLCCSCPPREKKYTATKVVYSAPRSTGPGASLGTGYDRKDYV

[2] = molecular target: T2, human claudin-4 expressed in HT-1080 cells (Homo sapiens (Human)., UniProt O14493); experiment: as above; settings: one partner purified
T2 construct: claudin-4, human; also called human CLDN-4; source: HT-1080 cells, stably expressing
T2 sequence (O14493 whole entry): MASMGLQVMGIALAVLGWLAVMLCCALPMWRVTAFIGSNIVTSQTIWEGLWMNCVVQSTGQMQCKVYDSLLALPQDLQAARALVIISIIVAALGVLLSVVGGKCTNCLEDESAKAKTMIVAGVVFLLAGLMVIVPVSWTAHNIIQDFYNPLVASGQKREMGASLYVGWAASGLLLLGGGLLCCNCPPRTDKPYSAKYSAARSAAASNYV

[3] = molecular target: T3, human claudin-6 expressed in HT-1080 cells (Homo sapiens (Human)., UniProt P56747); experiment: as above; settings: one partner purified
T3 construct: claudin-6, human; also called human CLDN-6; source: HT-1080 cells, stably expressing
T3 sequence (P56747 whole entry): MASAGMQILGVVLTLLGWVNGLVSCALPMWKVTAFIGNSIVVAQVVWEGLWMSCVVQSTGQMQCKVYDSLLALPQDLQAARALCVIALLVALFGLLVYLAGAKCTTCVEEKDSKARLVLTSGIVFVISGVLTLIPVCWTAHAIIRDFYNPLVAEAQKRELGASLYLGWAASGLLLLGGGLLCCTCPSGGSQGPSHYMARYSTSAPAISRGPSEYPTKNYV

[4] = molecular target: T4, human claudin-7 expressed in HT-1080 cells (Homo sapiens (Human)., UniProt O95471); experiment: as above; settings: one partner purified
T4 construct: claudin-7, human; also called human CLDN-7; source: HT-1080 cells, stably expressing
T4 sequence (O95471 whole entry): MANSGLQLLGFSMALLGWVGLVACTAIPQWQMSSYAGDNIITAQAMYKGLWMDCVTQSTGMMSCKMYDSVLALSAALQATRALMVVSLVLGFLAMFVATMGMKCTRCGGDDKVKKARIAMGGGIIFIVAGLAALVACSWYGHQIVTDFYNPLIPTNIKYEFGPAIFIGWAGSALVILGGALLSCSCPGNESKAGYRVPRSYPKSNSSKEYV

[5] = molecular target: T5, human claudin-5 expressed in HT-1080 cells (Homo sapiens (Human)., UniProt O00501); experiment: as above; settings: one partner purified
T5 construct: claudin-5, human; In the western blot the same protein stood denatured in the cell lysate; The TEER assays used MDCKII cells expressing human CLDN-5; also called human CLDN-5; hCLDN-5; source: HT-1080 cells, stably expressing; on cells and in lysate
T5 sequence (O00501 whole entry): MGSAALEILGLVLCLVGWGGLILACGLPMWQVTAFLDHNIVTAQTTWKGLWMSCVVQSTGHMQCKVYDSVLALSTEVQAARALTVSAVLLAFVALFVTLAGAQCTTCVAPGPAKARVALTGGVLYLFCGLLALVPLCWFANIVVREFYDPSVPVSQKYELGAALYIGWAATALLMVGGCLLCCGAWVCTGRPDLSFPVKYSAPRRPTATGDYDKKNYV

[6] = molecular target: T6, mouse claudin-5 expressed in HT-1080 cells (Mus musculus (Mouse)., UniProt O54942); experiment: as above; settings: one partner purified
T6 construct: claudin-5, mouse; The TEER assays used MDCKII cells expressing mouse CLDN-5; also called mouse CLDN-5; mCLDN-5; source: HT-1080 cells, stably expressing
T6 sequence (O54942 whole entry): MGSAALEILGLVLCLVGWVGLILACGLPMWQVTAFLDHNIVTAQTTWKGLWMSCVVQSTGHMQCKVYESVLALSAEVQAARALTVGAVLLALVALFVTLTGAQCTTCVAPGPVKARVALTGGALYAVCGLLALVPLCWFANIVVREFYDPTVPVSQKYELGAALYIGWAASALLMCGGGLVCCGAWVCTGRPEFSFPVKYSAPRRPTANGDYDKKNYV

[7] = molecular target: T7, human claudin-1 expressed in HT-1080 cells (Homo sapiens (Human)., UniProt O95832); experiment: as above; settings: one partner purified
T7 construct: claudin-1, human; also called human CLDN-1; source: HT-1080 cells, stably expressing
T7 sequence (O95832 whole entry): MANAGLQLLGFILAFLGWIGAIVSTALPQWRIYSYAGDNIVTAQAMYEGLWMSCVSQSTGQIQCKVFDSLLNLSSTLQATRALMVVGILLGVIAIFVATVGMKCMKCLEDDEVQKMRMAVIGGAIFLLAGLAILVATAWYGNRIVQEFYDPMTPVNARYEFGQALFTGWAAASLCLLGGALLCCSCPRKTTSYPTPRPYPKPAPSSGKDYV

[8] = molecular target: T8, human claudin-2 expressed in HT-1080 cells (Homo sapiens (Human)., UniProt P57739); experiment: as above; settings: one partner purified
T8 construct: claudin-2, human; also called human CLDN-2; source: HT-1080 cells, stably expressing
T8 sequence (P57739 whole entry): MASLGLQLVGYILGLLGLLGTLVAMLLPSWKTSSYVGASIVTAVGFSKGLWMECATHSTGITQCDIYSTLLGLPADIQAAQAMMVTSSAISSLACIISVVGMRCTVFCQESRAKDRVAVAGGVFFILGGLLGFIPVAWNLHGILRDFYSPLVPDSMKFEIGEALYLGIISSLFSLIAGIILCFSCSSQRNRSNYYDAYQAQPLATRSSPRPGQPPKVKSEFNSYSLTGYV

[9] = molecular target: T9, AGIA-tagged human CLDN-5, cell-free synthesized proteoliposome (Homo sapiens, UniProt O00501); experiment: ELISA; cell-free synthesized AGIA-tagged CLDN proteoliposomes immobilised on a microtiter plate overnight at 4 °C; mAb 10 µg/mL in 5% skimmed milk/T-TBS, 1 h at room temperature; HRP anti-mouse IgG + IgM; settings: both partners purified
T9 construct: claudin-5, human; codon-converted synthetic gene; The vector pEU-E01-AGIA-GW puts a start codon and the AGIA tag at the 5′-end of the cassette, though the label reads hCLDN-5-AGIA; also called hCLDN-5-AGIA; cell-free synthesized CLDN-5; source: wheat cell-free synthesis on liposomes, proteoliposomes collected by centrifugation; not shown: AGIA, N-terminal, kept
T9 sequence (O00501 whole entry): as the sequence (O00501 whole entry) above

[10] = molecular target: T5, human claudin-5 expressed in HT-1080 …; experiment: flow cytometry on cells; HT-1080/hCLDN-5 cells with purified mAb at 0.0024–40 µg/mL; mean fluorescence intensity fitted to Y = Bmax • X/(Kd + X); apparent dissociation constant; three independent experiments; settings: one partner purified

| Binder | binding result [1] | binding result [2] | binding result [3] | binding result [4] | binding result [5] | binding result [6] | binding result [7] | binding result [8] | binding result [9] | Kd [10] [nM] |
| --- | --- | --- | --- | --- | --- | --- | --- | --- | --- | --- |
| B1 | no binding (tested: 5 µg/mL) | no binding (tested: 5 µg/mL) | no binding (tested: 5 µg/mL) | no binding (tested: 5 µg/mL) | binds | no binding (tested: 5 µg/mL) | no binding (tested: 5 µg/mL) | no binding (tested: 5 µg/mL) | binds | – |
| B2 | no binding (tested: 5 µg/mL) | no binding (tested: 5 µg/mL) | no binding (tested: 5 µg/mL) | no binding (tested: 5 µg/mL) | binds | no binding (tested: 5 µg/mL) | no binding (tested: 5 µg/mL) | no binding (tested: 5 µg/mL) | binds | – |
| B3 | no binding (tested: 5 µg/mL) | no binding (tested: 5 µg/mL) | no binding (tested: 5 µg/mL) | no binding (tested: 5 µg/mL) | binds | no binding (tested: 5 µg/mL) | no binding (tested: 5 µg/mL) | no binding (tested: 5 µg/mL) | binds | – |
| B4 | no binding (tested: 5 µg/mL) | no binding (tested: 5 µg/mL) | no binding (tested: 5 µg/mL) | no binding (tested: 5 µg/mL) | – | no binding (tested: 5 µg/mL) | no binding (tested: 5 µg/mL) | no binding (tested: 5 µg/mL) | – | 7.37 |
